According to the nanobody polyreactivity screen of Harvey et al. (2022):

assay: yeast display, Sf9 membrane polyspecificity reagent, FACS + sequencing; frameworks hold sequencing errors
Outline: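 Sorting gates, low and high (top ~1%), were placed on anti-HA fluorescence to track expression and on streptavidin fluorescence to track reagent binding. A clone's polyreactivity label is taken from the gate it came out of. The reagent was 10% biotinylated, detergent-solubilized Sf9 membrane, applied for 1 hour at 4 °C to galactose-induced yeast display cells.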

**Q.** Which “polyreactivity (PSR sort gate)” value does the source give for “QVQLVESGGGLVQAGGSLRLSCAASGSIFRYYAMGWYRPAPGKERELVARISATGASTYYADSVKGRFTISRDNAKNTVYLQMNSLKPEDTAVYYCAAGGRSRWGRYSPYDYWGQGTQVTVSS” here?
**A.** high polyreactivity

**Q.** With “QVQLVESGGGLVQAGGSLRLSCAASGSIFRYYAMGWYRQAHGKERELVAVITSSGTSTYYADSVKGRFTISRDNAKNTVYLQMNSRKPEDTAVDYCAVYPIIYGRMDSWGQGTQVTVSS” as the sequence, how does the “polyreactivity (PSR sort gate)” value read?
**A.** low polyreactivity

**Q.** For “QVQLVESGGGLVQAGGSLRLSCAASGSIFRYYAMGWYRQAPGKEREFDASITYRGGRTYYADSVKGRFTISRDNAKNTVYLQMNSLKPEDTAVYYCAARTRAGAWTSKYHDYWGQGTQVTVSS”, which “polyreactivity (PSR sort gate)” value is on record?
**A.** high polyreactivity

**Q.** Which “polyreactivity (PSR sort gate)” value does the source give for “QVQLVESGGGLVQAGGSLRLSCAASGSIFRYYAMGWYRQAPGKERELVAAISSNGGSTYYADSVKGRFTISRDNAKNTVYLQMNSLKPEDTAVYYCAALFRRAPGYYWGQGTQVTVSS” here?
**A.** high polyreactivity

**Q.** Which “polyreactivity (PSR sort gate)” value does the source give for “QVQLVESGGGLVQAGGSLRLSCAASGSIFRYYAMGWYRQAPGKERELVASISSGAGSTYYADSVKGRFTISRDNAKNTVYLQMNSLKPEDTAVYYCAARPGYSAFYYWGQGTQVTVSS” here?
**A.** high polyreactivity

**Q.** Which “polyreactivity (PSR sort gate)” value does the source give for “QVQLVESGGGLVQAGGSLRLSCAASGSIFRYYAMGWYRQAPGKERELVASITRRGGSTYYADSVKGRFTISRDNAKNTVYLQMTSLKPEDTAVYYCAAHKTYVRDYYWGQGTQVTVSS” here?
**A.** high polyreactivity

**Q.** With “QVQLVESGGGLVQAGGSLRLSCAASGSIFRYYAMGWYRQAPWKERELVADISSGGSTYYADSVKGRFTISRDNAKNTVNLQMISQKPEDTAVYYCNDDYYAYPWTNDYWGQGTQVTVTS” as the sequence, how does the “polyreactivity (PSR sort gate)” value read?
**A.** high polyreactivity

**Q.** With “QVQLVESGGGLVQAGGSLRLSCAASGSIFRYYDMGWYRQAPGKERELVAAISDSTGTTYYADSVKGRFSISRDNAKNTVYLQMNSLKPEDTSVDYCTAGYDPRYDYWGQGTQVTVSS” as the sequence, how does the “polyreactivity (PSR sort gate)” value read?
**A.** high polyreactivity

**Q.** For “QVQLVESGGGLVQAGGSLRLSCAASGSIFSANAMGWYRQAPGKERELVAAINSGGGTYYADSVKGRFTISRDNAKNTVFLQMNSLKPEDTAVYYCATDAVYIKGKYYTHEYWGQGTQVTVSS”, which “polyreactivity (PSR sort gate)” value is on record?
**A.** high polyreactivity

**Q.** With “QVQLVESGGGLVQAGGSLRLSCAASGSIFSANAMGWYRQAPGKERELVAAISDGGAATYYADSVKGRFTISRDNAKHTVYLQMNSLKPEDTAVYYCIADDAFWTVVDGNWRYEYDYWGQGTQVTVSS” as the sequence, how does the “polyreactivity (PSR sort gate)” value read?
**A.** low polyreactivity

**Q.** For “QVQLVESGGGLVQAGGSLRLSCAASGSIFSANARGWYRQAPGKERELVASITGDGSTNYADSVKGRFTISRDNAKNPGYLQMNSLKPEDTAVYYCAADIGSWYDYWGQGTQVTGSS”, which “polyreactivity (PSR sort gate)” value is on record?
**A.** low polyreactivity

**Q.** For “QVQLVESGGGLVQAGGSLRLSCAASGSIFSAYAMGWSRQAPGKERELVASITTDGGITYYADSVKGRFTISRDNAKNTVYLQMNSLKPEDTAVYYCAVLQYYYPYYYWGQGTQVTVSS”, which “polyreactivity (PSR sort gate)” value is on record?
**A.** low polyreactivity

**Q.** Which “polyreactivity (PSR sort gate)” value does the source give for “QVQLVESGGGLVQAGGSLRLSCAASGSIFSAYAMGWYRQAPGKEREFVASITWSGGSTYYADSVKGRFTISRDNAKNTVYLQMNSLKPEDTAVYYCAAVYVTWYNNYEYWGQGTQVTVSS” here?
**A.** high polyreactivity

**Q.** For “QVQLVESGGGLVQAGGSLRLSCAASGSIFSAYAMGWYRQAPGKERELVAAISSRGGSTYYADSVKGRFTISRDNAKNTVYLQMNSLKPEDTAVDYCAARVRHSAYDYWGQGTQVTVSS”, which “polyreactivity (PSR sort gate)” value is on record?
**A.** high polyreactivity

**Q.** For “QVQLVESGGGLVQAGGSLRLSCAASGSIFSAYAMGWYRQAPGKERELVAAITKSSVTYYADSVKGRFTISRDNAKNTVYLQMNSLKPEDTAVYYCAAYSPRPSDLYSPIAYYYWGQGTQVTVSS”, which “polyreactivity (PSR sort gate)” value is on record?
**A.** low polyreactivity

**Q.** With “QVQLVESGGGLVQAGGSLRLSCAASGSIFSFNAMGWYRQAPGKERELVAAISWRGASTYYADSVKGRFTISRDNAKNTVYLQMNSLKPEDTAVYYCAAESTFILQYSYIYYDGHYDYWGQGTQVTVSS” as the sequence, how does the “polyreactivity (PSR sort gate)” value read?
**A.** low polyreactivity

**Q.** Which “polyreactivity (PSR sort gate)” value does the source give for “QVQLVESGGGLVQAGGSLRLSCAASGSIFSFYAMVWYRQAPGKERELVADISLTTDSTYADSVKGRFTISRDNAKNTVYLQMNSLKPEDTAVYYCAADFFGTITWYDYWGQGTQVTVSS” here?
**A.** low polyreactivity

**Q.** For “QVQLVESGGGLVQAGGSLRLSCAASGSIFSFYAVGWYRQAPGKERELVAALSSGGSTYYADSVKGRFTISGDNAKNTVYLQMNSLIPEDTAVYYCAADPYRYNFRAYGWYREGYYWGQGTQVTVSS”, which “polyreactivity (PSR sort gate)” value is on record?
**A.** low polyreactivity

**Q.** For “QVQLVESGGGLVQAGGSLRLSCAASGSIFSGNAMGWYRQAPGKERELVAAISRSGTSTYYADSVKGRFTISRDNAKNTVYFQMNSLKPEDTAVYYCNARSYYTLRSDFYYWGQGTQVTVSS”, which “polyreactivity (PSR sort gate)” value is on record?
**A.** high polyreactivity

**Q.** Which “polyreactivity (PSR sort gate)” value does the source give for “QVQLVESGGGLVQAGGSLRLSCAASGSIFSGNAMGWYRQAPGKERELVAAISSNGGRTYYADSVKGRFTISRDNAKNTVYLQMNSLKPEDTAVYYCAADSGKRRYGYYYWGQGTQVTVSS” here?
**A.** high polyreactivity

**Q.** With “QVQLVESGGGLVQAGGSLRLSCAASGSIFSGNAMGWYRQAPGKERELVASINRSGGSTYYADSVKGRFTISRDNAKNTVYLQMNSLKTEDTAVYYCAARRVWLAGYDSWGQGTQVTVSS” as the sequence, how does the “polyreactivity (PSR sort gate)” value read?
**A.** low polyreactivity

**Q.** Which “polyreactivity (PSR sort gate)” value does the source give for “QVQLVESGGGLVQAGGSLRLSCAASGSIFSGNPMGWYRQAPGKERELVAAIDWSGDSTYYADSVKGRFTISRDNAKNTVYLQMNSLKPEDTAVYYCNTVSFSWGYSAYDYWGQGTQVTVSS” here?
**A.** low polyreactivity

**Q.** Which “polyreactivity (PSR sort gate)” value does the source give for “QVQLVESGGGLVQAGGSLRLSCAASGSIFSGNTMGWYRQAPGKERELVAAISKSGGSTYYADSVKGRFTISRDNAKNTVYLQINSLKPEDTAVYYCAVRIRSRVANPGYRWGFNYWGQGTQVTVSS” here?
**A.** high polyreactivity

**Q.** Which “polyreactivity (PSR sort gate)” value does the source give for “QVQLVESGGGLVQAGGSLRLSCAASGSIFSGNVMGWYRQAPGKERELVAAISGRGGSTYYADSVKGRFTISRDNAKNTVYLQMNSLKPEDTAVYYCAAVYLKTYYWGQGTQVTVSS” here?
**A.** high polyreactivity

**Q.** Which “polyreactivity (PSR sort gate)” value does the source give for “QVQLVESGGGLVQAGGSLRLSCAASGSIFSGYAMGWYRQAPGKESDLVAAISGSGGSTFYADSVKGRFTISRDYAKNTVYLQMNSLKPEDTAVYFCAARRIAPYGRYDYWGQGTQVTVSS” here?
**A.** low polyreactivity

**Q.** Which “polyreactivity (PSR sort gate)” value does the source give for “QVQLVESGGGLVQAGGSLRLSCAASGSIFSGYTMGWYRQAPGKERELVAAISSDGSTTYADSVKGRFTISRDNAKNTVYLQMNSLNPEDTADYYCAAYPYWEGSYGGYDYWGQGTEVTVSS” here?
**A.** low polyreactivity

**Q.** With “QVQLVESGGGLVQAGGSLRLSCAASGSIFSINAMGWYRQAPGKERELVAAISASGGSTYYADSVKGRFTISRDNAKNTVYLQMNSLKPEDTAVYYCAAEGSPTGYDYWGQGTQVTVSS” as the sequence, how does the “polyreactivity (PSR sort gate)” value read?
**A.** low polyreactivity

**Q.** Which “polyreactivity (PSR sort gate)” value does the source give for “QVQLVESGGGLVQAGGSLRLSCAASGSIFSINTMGWYRQAPGKERELVATITWSVGSTNYADSVKGRFTISRDNAKNTVYLQMNSLKPEDTAVYYCNADSSRWPYRLYRFYYWGQGTQVTVSS” here?
**A.** low polyreactivity

**Q.** Which “polyreactivity (PSR sort gate)” value does the source give for “QVQLVESGGGLVQAGGSLRLSCAASGSIFSINTMGWYRQPPGKERELVAAITRSGSGTYYADSVKGRFTISRDNAKNTVYLQMNSLKPEDTAVYYCAKPAGARLGYWGQGTQVTVSS” here?
**A.** low polyreactivity

**Q.** With “QVQLVESGGGLVQAGGSLRLSCAASGSIFSIYAMEWYRQAPGKERELVAAITWGGGSTYYADSVKGRFTISRDNAKNTVYLQMNSLKPEDTAVYYCAADSLTWYGTYYYWGQGTQVTVSS” as the sequence, how does the “polyreactivity (PSR sort gate)” value read?
**A.** high polyreactivity

**Q.** With “QVQLVESGGGLVQAGGSLRLSCAASGSIFSIYAMGWYRQAPGKERELVAAINWIGTSTYYADSVKGRFTISRDNAKNTVYLQMNSLKPEDTAVYYCAAVSRRVSPYLSARDYCGQGTQVTVSS” as the sequence, how does the “polyreactivity (PSR sort gate)” value read?
**A.** high polyreactivity

**Q.** With “QVQLVESGGGLVQAGGSLRLSCAASGSIFSIYAMGWYRQAPGKERELVAAISSGGSTYADSVKGRFTISRDNAKNTVYLQMNSLKPEDTAVYYCAADRRGYRGYDYWGQGTQVTVSS” as the sequence, how does the “polyreactivity (PSR sort gate)” value read?
**A.** low polyreactivity

**Q.** With “QVQLVESGGGLVQAGGSLRLSCAASGSIFSIYAMGWYRQAPWKERELVAAITWGGGSTYYADSVKGRFTISRDNAKNTVYVQMNSLKPEDTAVYYCAADSLTWYGTYYYWGQGTQVTVSS” as the sequence, how does the “polyreactivity (PSR sort gate)” value read?
**A.** high polyreactivity

**Q.** For “QVQLVESGGGLVQAGGSLRLSCAASGSIFSKYTMGWSRQAPGKEWELVAVISDSGASTYYADSVKGRFTISRDNAKNTVYLEMNSLKPEDTAVYYCAAVYRGALTLYYWGQGTQVTVSS”, which “polyreactivity (PSR sort gate)” value is on record?
**A.** high polyreactivity

**Q.** For “QVQLVESGGGLVQAGGSLRLSCAASGSIFSKYVMGWYRQAPGKERELVAAISWSGTRTYYADSVKGRFTISRDNAKNTVYLQMNSLKPEDTAVDYCAARRLYAGHQYDYWGQGTQVTVSS”, which “polyreactivity (PSR sort gate)” value is on record?
**A.** high polyreactivity

**Q.** Which “polyreactivity (PSR sort gate)” value does the source give for “QVQLVESGGGLVQAGGSLRLSCAASGSIFSLYAMGWYRQAPGKEWELVAAISRGGSTNYADSVKGRFTISRDNAKNTVYLQMNSLKPEDTAVYYCNAGFGVRRKHITFYTWYDYWGQGTQVTVSS” here?
**A.** low polyreactivity

**Q.** Which “polyreactivity (PSR sort gate)” value does the source give for “QVQLVESGGGLVQAGGSLRLSCAASGSIFSNNAMGWYRQAPGKERELVAAITRSGGNTYYADSVKGRFTISRDNAKNTVYLQMNSLKPEDTAVYYCNAVHLRKMYYWGQGTQVTVSS” here?
**A.** high polyreactivity

**Q.** For “QVQLVESGGGLVQAGGSLRLSCAASGSIFSPNAMGWYRQAPGKERELVAGISWSGDGTYYADSVKGRFTISRDNAKNTVYLQMNSLKPEDTAVYYCAARFGRYSHRYYYWGQGTQVTVSS”, which “polyreactivity (PSR sort gate)” value is on record?
**A.** high polyreactivity

**Q.** With “QVQLVESGGGLVQAGGSLRLSCAASGSIFSPNDMGWYRQAPGKERELVAAITSAGSTYYADSVKGRFTISRDNAKNTVYLQMNSLKPEDTAVYYCAATYISVTDYAYFPLWYGYWGQGTQVTVSS” as the sequence, how does the “polyreactivity (PSR sort gate)” value read?
**A.** low polyreactivity

**Q.** With “QVQLVESGGGLVQAGGSLRLSCAASGSIFSPYAMGWYRQAPGKERELVAAISRSGRTHYADSVKGRFTISRDNAKNTVYLQMNSLKPEDTAVYYCAAGVVYGYYYWGQGTQVTVSS” as the sequence, how does the “polyreactivity (PSR sort gate)” value read?
**A.** high polyreactivity

**Q.** With “QVQLVESGGGLVQAGGSLRLSCAASGSIFSPYDMGWYRQAPGKERELVASITWRRGNTYYADSVKGRFTISRDNAKNTVYLQMNSLKPEDTAVYYCAATRGAQTPQTRKKRGFDYWGQGTQVTVSS” as the sequence, how does the “polyreactivity (PSR sort gate)” value read?
**A.** low polyreactivity
